Publication PMC9328315, “Streptococcus pneumoniae binds collagens and C1q via the SSURE repeats of the PfbB adhesin” (Molecular Microbiology, 2022)

What was measured:
Assay in all cases: ELISA; titration: wells sensitized with 1 μg/ml of collagen type I, II, III, IV, VI or C1q; increasing concentrations of C‐SSURE or N‐SSURE (0,016–10 μg/ml), detected with anti‐His antibody; dissociation constants calculated from the titration curves (Figure 3c,d)
[1] = molecular target: type I collagen (calf (from calfskin)) (UniProt P02453)
Chain of type I collagen (calf (from calfskin)) (P02453 162-1217, chain 1 of 2): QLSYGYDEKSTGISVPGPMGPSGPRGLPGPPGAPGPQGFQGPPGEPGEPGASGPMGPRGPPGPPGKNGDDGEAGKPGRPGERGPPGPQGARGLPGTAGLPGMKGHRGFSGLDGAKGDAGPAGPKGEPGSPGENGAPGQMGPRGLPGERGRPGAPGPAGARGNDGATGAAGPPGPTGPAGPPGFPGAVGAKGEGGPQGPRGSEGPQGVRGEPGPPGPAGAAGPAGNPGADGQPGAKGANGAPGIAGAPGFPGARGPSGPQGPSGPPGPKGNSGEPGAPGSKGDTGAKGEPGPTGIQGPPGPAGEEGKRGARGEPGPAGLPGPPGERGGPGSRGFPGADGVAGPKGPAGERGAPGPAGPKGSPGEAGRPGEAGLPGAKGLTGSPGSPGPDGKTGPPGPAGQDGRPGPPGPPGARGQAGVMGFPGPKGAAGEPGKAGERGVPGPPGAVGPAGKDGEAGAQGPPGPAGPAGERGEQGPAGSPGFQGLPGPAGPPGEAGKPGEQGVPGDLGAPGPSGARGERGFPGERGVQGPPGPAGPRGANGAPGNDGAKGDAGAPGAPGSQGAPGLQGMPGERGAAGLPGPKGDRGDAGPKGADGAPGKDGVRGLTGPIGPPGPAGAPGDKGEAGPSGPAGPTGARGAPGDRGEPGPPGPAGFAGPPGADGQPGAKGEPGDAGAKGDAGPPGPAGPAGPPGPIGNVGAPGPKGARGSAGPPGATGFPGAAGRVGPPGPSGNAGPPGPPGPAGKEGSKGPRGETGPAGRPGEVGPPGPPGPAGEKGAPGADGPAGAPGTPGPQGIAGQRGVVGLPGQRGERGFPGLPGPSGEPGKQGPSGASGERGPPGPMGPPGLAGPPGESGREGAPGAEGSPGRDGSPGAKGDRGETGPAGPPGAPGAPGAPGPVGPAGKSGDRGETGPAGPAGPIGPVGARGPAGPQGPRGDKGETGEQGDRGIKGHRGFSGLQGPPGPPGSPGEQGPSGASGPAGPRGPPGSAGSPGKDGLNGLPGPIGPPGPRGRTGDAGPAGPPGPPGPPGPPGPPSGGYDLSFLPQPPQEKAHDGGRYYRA
Chain of type I collagen (calf (from calfskin)) (P02465 80-1117, chain 2 of 2, further chain): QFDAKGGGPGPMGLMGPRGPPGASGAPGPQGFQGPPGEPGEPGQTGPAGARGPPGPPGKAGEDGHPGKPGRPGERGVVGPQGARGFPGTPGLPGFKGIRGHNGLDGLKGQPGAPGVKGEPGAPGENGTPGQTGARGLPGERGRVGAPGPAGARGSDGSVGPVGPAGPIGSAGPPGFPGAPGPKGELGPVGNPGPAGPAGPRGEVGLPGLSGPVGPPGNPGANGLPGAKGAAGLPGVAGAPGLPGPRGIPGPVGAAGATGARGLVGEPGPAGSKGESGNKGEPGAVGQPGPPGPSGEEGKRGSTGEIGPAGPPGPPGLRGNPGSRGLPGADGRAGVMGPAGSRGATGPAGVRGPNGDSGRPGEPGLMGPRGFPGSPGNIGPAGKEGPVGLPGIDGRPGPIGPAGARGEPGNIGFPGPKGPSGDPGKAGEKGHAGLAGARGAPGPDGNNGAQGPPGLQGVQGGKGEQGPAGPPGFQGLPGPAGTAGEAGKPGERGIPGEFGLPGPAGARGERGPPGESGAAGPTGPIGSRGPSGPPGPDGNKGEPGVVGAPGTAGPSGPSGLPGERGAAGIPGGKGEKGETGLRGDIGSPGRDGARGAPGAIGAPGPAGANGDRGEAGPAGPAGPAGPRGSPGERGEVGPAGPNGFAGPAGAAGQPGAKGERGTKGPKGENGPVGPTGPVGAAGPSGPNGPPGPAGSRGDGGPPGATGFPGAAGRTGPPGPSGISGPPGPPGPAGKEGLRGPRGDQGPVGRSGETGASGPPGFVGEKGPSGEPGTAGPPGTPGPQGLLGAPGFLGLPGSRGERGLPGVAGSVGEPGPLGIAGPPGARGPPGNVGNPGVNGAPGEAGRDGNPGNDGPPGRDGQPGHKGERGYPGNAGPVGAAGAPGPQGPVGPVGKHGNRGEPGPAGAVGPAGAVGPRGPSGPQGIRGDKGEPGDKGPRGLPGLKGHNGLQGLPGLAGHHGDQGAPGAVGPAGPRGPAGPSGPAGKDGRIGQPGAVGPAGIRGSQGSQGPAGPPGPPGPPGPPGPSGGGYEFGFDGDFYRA

[2] = molecular target: complement component C1q (human) (UniProt P02745)
Chain of complement component C1q (human) (P02745 23-245, chain 1 of 3): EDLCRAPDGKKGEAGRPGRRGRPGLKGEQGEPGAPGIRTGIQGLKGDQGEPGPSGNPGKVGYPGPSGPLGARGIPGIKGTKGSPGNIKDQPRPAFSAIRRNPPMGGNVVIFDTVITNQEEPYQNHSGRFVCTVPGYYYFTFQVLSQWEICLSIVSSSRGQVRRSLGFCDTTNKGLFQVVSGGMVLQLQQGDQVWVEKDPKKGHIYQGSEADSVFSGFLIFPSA
Chain of complement component C1q (human) (P02746 28-253, chain 2 of 3, further chain): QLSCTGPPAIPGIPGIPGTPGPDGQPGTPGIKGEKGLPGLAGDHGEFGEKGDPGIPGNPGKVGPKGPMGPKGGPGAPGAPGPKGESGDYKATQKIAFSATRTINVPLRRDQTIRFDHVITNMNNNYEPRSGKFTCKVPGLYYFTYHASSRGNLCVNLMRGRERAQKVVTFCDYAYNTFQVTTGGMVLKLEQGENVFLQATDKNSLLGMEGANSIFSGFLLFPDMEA
Chain of complement component C1q (human) (P02747 29-245, chain 3 of 3, further chain): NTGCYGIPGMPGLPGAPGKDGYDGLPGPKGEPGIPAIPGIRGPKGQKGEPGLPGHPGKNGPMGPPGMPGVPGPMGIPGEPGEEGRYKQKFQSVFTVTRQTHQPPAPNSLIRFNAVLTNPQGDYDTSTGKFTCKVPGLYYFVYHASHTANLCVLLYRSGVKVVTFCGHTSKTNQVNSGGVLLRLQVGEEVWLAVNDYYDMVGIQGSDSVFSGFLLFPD

[3] = molecular target: type III collagen (calf (from calfskin)) (UniProt P04258)
Chain of type III collagen (calf (from calfskin)) (P04258 whole entry): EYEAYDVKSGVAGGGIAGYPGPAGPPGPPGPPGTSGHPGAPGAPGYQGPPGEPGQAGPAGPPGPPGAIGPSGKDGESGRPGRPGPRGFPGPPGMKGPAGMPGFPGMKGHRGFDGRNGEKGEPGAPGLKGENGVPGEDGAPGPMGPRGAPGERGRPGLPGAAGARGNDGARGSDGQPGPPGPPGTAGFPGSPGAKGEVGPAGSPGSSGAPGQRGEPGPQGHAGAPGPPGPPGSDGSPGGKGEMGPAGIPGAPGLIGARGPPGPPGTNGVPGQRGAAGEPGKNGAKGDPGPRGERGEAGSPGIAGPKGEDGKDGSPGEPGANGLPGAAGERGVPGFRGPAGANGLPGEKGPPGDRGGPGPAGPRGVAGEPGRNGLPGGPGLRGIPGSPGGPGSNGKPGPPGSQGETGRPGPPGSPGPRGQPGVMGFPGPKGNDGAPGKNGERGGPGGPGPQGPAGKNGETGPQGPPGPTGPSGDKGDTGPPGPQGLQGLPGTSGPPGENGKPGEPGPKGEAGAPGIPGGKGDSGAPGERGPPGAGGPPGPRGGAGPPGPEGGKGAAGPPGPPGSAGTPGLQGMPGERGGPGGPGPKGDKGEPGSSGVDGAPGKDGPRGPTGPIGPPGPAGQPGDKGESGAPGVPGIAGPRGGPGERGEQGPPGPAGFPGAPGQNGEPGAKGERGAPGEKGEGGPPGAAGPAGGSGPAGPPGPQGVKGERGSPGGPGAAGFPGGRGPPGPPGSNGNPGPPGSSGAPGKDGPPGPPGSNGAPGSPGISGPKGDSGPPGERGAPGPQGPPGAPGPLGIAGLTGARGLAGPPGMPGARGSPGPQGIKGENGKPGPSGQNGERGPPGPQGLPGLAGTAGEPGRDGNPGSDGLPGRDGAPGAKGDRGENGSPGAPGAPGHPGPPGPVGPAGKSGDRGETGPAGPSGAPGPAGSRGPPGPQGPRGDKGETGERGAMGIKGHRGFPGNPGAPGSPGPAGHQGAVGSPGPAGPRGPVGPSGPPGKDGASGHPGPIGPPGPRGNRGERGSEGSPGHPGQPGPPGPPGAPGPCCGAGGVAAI

human type VI collagen = human type VI collagen (human, UniProt P12109 20-1028; P12110 21-1019; P12111 26-3177); details: both partners purified
human type IV collagen = human type IV collagen (human, UniProt P02462 173-1669; P08572 184-1712); details: both partners purified

In the case of “C‐SSURE, recombinant polyhistidine‐tagged polypeptide encompassing amino acids 902–1053 (C‐terminal SSURE domain) of the PfbB protein (domain or fragment)”, the Kd [1] is reported as 1720 nM, the Kd [2] is reported as 5.21 µM and the Kd [3] is reported as 1160 nM.

B1: N‐SSURE, recombinant polyhistidine‐tagged polypeptide encompassing amino acids 144–293 (N‐terminal SSURE domain) of the PfbB protein (domain or fragment)
chain: AETTPEQVKGGVKENTKDSIDVPAAYLEKAEGKGPFTAGVNQVIPYELFAGDGMLTRLLLKASDNAPWSDNGTAKNPALPPLEGLTKGKYFYEVDLNGNTVGKQGQALIDQLRANGTQTYKATVKVYGNKDGKADLTNLVATKNVDININ
notes: also called N‐terminal repeat; SSURE 1
In the case of B1, the Kd (human type VI collagen) is reported as 1200 ± 300 nM and the Kd (human type IV collagen) is reported as 1580 ± 100 nM.
